Molecular target: Roseovarius indicus B108 MmtN (the sample called MmtN in the DLS analysis) (Roseovarius indicus B108)
Assay: dynamic light scattering; DynaPro NanoStar, 4 °C, 2 μl of 2.5 mg ml^-1 protein in 10 mM Tris-HCl, 100 mM NaCl, pH 8.0

stoichiometry N: 3
Substance: Roseovarius indicus B108 MmtN (the sample called MmtN in the DLS analysis) (enzyme)

Source: PMC9135737
